Test results taken from paper PMC11369174 (Molecular Systems Biology, 2024).
Where no end group is shown, it is not given here.

What was measured:
Conditions in all cases: both partners purified
[1] = biological target: T1, Ras-GTPase-activating protein-binding protein 1 (G3BP1) NTF2 domain (human, UniProt Q13283 11-133); assay: fluorescence polarisation; displacement: unlabelled peptide titrated onto a complex of FITC-labelled peptide (10 nM) and protein domain (1-2x KD); 50 mM sodium phosphate buffer pH 7.4 (CASK: plus 100 mM NaCl); KD calculated from IC50; technical triplets
T1 construct: G3BP1, NTF2 domain; limits in Dataset EV2; source: E. coli BL21 DE (Gold), purified
T1 sequence (Q13283 11-133): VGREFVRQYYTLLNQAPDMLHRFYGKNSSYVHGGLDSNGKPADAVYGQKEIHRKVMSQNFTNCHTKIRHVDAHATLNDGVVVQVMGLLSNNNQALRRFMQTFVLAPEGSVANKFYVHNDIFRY

[2] = biological target: T2, importin subunit α-3 (KPNA4) ARM domain (human); assay: fluorescence polarisation; displacement as a1, with a FITC-labelled probe sampling the minor pocket of the KPNA4 ARM domain
T2 chain: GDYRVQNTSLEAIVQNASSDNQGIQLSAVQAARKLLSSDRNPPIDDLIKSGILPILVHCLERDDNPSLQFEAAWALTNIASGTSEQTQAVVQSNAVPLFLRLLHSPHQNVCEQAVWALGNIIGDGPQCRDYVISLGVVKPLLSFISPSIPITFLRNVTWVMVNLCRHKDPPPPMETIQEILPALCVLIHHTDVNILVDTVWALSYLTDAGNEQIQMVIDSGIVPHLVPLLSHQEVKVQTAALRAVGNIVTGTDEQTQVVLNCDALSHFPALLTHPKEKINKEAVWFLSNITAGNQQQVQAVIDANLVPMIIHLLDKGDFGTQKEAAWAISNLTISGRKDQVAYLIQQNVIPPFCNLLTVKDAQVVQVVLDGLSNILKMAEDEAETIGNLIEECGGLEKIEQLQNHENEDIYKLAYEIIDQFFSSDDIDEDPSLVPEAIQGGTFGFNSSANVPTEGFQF

[3] = biological target: T2, importin subunit α-3 (KPNA4) ARM domain; assay: fluorescence polarisation; displacement as a1, with a FITC-labelled probe sampling the major pocket of the ARM domain (KPNA4, KPNA7)
FITC-MYC = biological target: T3, FITC-MYC (also: FITC label, position not given here); assay: fluorescence polarisation; saturation binding: dilution series of the protein domain added to 10 nM FITC-labelled peptide; 50 mM sodium phosphate pH 7.4, 0.05% Tween (protein dialysed in 50 mM sodium phosphate with 1 mM DTT; CASK kinase domain with 100 mM NaCl in addition); quadratic fit; technical triplets
T3 chain: PAAKRVKLD

FITC-NCOR2 = biological target: T4, FITC-NCOR2 (also: FITC label, position not given here); assay: as above
T4 chain: PKRTYDMMEGRVGRAI

[4] = biological target: importin subunit α-8 (KPNA7) ARM domain; assay: fluorescence polarisation; displacement as a1, with a FITC-labelled probe sampling the major pocket of the ARM domain (KPNA4, KPNA7)
CREBBP KIX = biological target: T5, CREBBP KIX (human, UniProt Q92793 587-666); assay: fluorescence polarisation; displacement: unlabelled peptide titrated onto a complex of FITC-labelled peptide (10 nM) and protein domain (1-2x KD); 50 mM sodium phosphate buffer pH 7.4 (CASK: plus 100 mM NaCl); KD calculated from IC50; technical triplets
T5 construct: CREBBP, KIX domain; limits in Dataset EV2; source: E. coli BL21 DE (Gold), purified

[5] = biological target: T6, ADP-ribosylation factor-binding protein GGA1 (GGA1) VHS domain (human, UniProt Q9UJY5 17-147); assay: as above
T6 construct: GGA1, VHS domain; limits in Dataset EV2; source: E. coli BL21 DE (Gold), purified
T6 sequence (looked up): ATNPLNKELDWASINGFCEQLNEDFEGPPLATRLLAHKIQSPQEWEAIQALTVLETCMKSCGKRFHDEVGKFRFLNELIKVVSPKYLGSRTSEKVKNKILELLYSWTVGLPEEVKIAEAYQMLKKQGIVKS

[6] = biological target: T7, peripheral plasma membrane protein CASK (CASK) kinase domain (human, UniProt O14936 12-276); assay: as above
T7 construct: CASK, kinase domain; limits in Dataset EV2; source: E. coli Rosetta, purified
T7 sequence (looked up): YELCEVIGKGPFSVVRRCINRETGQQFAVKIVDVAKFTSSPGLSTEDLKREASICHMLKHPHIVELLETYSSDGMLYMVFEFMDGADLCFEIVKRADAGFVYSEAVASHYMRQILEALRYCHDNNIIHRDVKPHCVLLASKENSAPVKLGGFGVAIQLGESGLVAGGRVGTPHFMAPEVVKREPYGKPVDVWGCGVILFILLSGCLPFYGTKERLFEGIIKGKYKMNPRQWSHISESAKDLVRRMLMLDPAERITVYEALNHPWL

[7] = biological target: T8, clathrin N-terminal domain (CLTC NTD) (human); assay: as above
T8 chain: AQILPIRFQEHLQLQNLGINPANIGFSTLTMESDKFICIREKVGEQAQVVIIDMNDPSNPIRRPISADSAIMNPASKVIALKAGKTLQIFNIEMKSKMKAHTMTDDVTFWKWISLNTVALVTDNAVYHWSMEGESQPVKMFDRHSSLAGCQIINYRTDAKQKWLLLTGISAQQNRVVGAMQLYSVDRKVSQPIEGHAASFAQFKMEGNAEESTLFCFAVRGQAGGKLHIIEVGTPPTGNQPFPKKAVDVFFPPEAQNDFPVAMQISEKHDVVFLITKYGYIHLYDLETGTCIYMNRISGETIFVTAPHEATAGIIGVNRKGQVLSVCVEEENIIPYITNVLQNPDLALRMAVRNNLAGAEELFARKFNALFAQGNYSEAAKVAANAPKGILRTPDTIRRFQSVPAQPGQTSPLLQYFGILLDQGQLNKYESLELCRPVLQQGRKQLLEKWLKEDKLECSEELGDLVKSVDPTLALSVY

[8] = biological target: T9, Ras-GTPase-activating protein-binding protein 2 (G3BP2) NTF2 domain (human, UniProt Q9UN86 11-133); assay: as above
T9 construct: G3BP2, NTF2 domain; limits in Dataset EV2; source: E. coli BL21 DE (Gold), purified
T9 sequence (looked up): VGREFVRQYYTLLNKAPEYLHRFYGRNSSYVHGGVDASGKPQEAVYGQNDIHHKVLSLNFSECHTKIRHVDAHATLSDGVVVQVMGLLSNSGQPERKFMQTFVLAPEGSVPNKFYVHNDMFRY

[9] = biological target: T10, Clathrin N-terminal domain (CLTC NTD) (human); assay: fluorescence polarisation
T10 construct: also called Clathrin NTD

[10] = biological target: T11, E3 ubiquitin-protein ligase NEDD4 (NEDD4) WW2 domain, GST-tagged (human); assay: fluorescence polarisation
T11 construct: also called NEDD4 WW2-GST

PPIA = biological target: T12, PPIA (human, UniProt P62937 1-165); assay: fluorescence polarisation; saturation binding: dilution series of the protein domain added to 10 nM FITC-labelled peptide; 50 mM sodium phosphate pH 7.4, 0.05% Tween (protein dialysed in 50 mM sodium phosphate with 1 mM DTT; CASK kinase domain with 100 mM NaCl in addition); quadratic fit; technical triplets
T12 construct: PPIA, human; source: E. coli BL21 (DE3) Gold, purified (glutathione or Ni2+ beads)

[11] = biological target: T13, Ras-GTPase-activating protein-binding protein 2 (G3BP2) NTF2 domain (human, UniProt Q9UN86 11-133); assay: fluorescence polarisation
T13 sequence (looked up): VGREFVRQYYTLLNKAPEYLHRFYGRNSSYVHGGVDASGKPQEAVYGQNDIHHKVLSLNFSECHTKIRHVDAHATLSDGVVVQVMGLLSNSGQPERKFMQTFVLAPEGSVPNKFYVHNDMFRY

[12] = biological target: T14, Ras-GTPase-activating protein-binding protein 1 (G3BP1) NTF2 domain (human, UniProt Q13283 11-133); assay: fluorescence polarisation
T14 construct: also called G3BP1 NTF1
T14 sequence (Q13283 11-133): as the sequence (Q13283 11-133) above

T5 sequence (Q92793 587-666): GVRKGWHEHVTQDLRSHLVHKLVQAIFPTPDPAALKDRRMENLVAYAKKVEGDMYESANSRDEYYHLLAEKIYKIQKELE
Chain of importin subunit α-8 (KPNA7) ARM domain (chain, as listed by the source): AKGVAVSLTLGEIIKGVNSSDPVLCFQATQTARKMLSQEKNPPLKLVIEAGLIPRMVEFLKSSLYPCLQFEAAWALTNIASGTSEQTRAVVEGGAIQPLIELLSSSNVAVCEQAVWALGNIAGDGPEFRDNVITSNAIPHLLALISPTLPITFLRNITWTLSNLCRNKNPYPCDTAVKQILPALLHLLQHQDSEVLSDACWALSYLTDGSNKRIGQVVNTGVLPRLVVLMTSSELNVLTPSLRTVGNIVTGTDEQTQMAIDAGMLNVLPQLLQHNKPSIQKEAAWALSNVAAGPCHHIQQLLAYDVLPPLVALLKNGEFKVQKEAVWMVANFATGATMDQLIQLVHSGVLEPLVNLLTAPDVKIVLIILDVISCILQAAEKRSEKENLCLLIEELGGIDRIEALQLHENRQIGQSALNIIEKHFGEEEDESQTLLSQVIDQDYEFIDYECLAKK
T12 sequence (P62937 whole entry, the tested form may be a part): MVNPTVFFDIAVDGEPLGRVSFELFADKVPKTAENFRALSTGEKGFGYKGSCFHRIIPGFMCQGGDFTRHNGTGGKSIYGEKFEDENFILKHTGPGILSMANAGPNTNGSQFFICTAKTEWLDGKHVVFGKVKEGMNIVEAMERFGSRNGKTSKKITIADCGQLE
T11 sequence (P46934 whole entry, the tested form may be a part): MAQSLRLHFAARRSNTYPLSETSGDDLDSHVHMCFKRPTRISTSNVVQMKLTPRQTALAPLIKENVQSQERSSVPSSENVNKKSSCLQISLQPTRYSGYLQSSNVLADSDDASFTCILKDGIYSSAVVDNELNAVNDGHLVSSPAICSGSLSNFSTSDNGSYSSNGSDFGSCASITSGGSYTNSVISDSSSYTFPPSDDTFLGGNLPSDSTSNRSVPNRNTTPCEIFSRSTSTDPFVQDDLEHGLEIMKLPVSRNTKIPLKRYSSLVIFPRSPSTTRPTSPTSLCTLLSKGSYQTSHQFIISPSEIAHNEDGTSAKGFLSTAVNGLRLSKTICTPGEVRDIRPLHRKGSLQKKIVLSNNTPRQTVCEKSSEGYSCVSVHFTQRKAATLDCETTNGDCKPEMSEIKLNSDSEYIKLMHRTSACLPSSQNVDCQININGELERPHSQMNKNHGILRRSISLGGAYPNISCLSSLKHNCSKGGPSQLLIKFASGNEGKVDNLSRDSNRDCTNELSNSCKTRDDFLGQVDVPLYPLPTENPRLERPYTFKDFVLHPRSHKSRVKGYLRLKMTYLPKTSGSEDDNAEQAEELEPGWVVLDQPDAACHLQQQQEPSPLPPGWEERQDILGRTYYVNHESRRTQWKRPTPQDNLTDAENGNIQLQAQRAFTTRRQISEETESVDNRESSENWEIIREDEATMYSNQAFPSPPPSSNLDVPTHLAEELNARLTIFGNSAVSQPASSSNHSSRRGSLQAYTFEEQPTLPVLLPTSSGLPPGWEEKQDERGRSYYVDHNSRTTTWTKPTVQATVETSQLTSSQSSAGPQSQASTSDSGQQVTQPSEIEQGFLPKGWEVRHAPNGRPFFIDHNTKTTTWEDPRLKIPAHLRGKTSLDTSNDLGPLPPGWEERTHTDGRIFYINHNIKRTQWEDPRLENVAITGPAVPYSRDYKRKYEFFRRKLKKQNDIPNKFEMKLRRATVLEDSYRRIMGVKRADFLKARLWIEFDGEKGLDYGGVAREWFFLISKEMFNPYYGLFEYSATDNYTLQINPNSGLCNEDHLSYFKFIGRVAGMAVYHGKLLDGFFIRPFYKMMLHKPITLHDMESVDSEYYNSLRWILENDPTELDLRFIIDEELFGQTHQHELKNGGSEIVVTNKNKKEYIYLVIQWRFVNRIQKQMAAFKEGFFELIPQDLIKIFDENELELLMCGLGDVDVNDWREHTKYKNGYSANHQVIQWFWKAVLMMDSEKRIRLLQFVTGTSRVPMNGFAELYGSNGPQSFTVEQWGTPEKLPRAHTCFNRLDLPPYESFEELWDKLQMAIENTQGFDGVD

B1: CTNNB1_(27-42) S33F peptide (peptide)
peptide: QQSYLDFGIHSGATTT
notes: β-catenin residues 27-42; also called CTNNB1 S33F mutant; source: synthetic peptide, bought: Genecust
Kd [1]: 57 µM

B2: ABRAXAS1_(349-364) R361Q peptide (peptide)
peptide: LDLDDRWQFKRSQLLD
notes: also called ABRAXAS1 R361Q mutant; source: synthetic peptide, bought: Genecust
KD, minor pocket [2]: 297 µM
KD, major pocket [3]: 75 µM

B3: Importin subunit alpha-3 (KPNA4) ARM domain (domain or fragment)
chain: GDYRVQNTSLEAIVQNASSDNQGIQLSAVQAARKLLSSDRNPPIDDLIKSGILPILVHCLERDDNPSLQFEAAWALTNIASGTSEQTQAVVQSNAVPLFLRLLHSPHQNVCEQAVWALGNIIGDGPQCRDYVISLGVVKPLLSFISPSIPITFLRNVTWVMVNLCRHKDPPPPMETIQEILPALCVLIHHTDVNILVDTVWALSYLTDAGNEQIQMVIDSGIVPHLVPLLSHQEVKVQTAALRAVGNIVTGTDEQTQVVLNCDALSHFPALLTHPKEKINKEAVWFLSNITAGNQQQVQAVIDANLVPMIIHLLDKGDFGTQKEAAWAISNLTISGRKDQVAYLIQQNVIPPFCNLLTVKDAQVVQVVLDGLSNILKMAEDEAETIGNLIEECGGLEKIEQLQNHENEDIYKLAYEIIDQFFSSDDIDEDPSLVPEAIQGGTFGFNSSANVPTEGFQF
Kd (FITC-MYC): 0.008 µM
Kd (FITC-NCOR2): 0.03 µM

B4: CDC45_(152-166) R157C peptide (peptide)
peptide: EPSEKCTRLEEEIVEY
notes: also called CDC45 R157C mutant; source: synthetic peptide, bought: Genecust
KD, major pocket [4]: 380 µM

B5: KMT2A 2847-2861 wild-type peptide (peptide)
peptide: SDIMDFVLKNTPSMQY
notes: also called KMT2A L2854Q wild-type; source: synthetic peptide, bought: Genecust
Kd (CREBBP KIX): 380 µM

B6: KMT2A 2847-2861 L2854Q peptide (peptide)
peptide: SDIMDFVQKNTPSMQY
notes: also called KMT2A L2854Q mutant; source: synthetic peptide, bought: Genecust
Kd (CREBBP KIX): 340 µM

B7: myosin-9 peptide (MYH9_(1419-1433)) wild-type (peptide)
peptide: YQQELDDLLVDLDHQR
notes: MYH9 residues 1419-1433; also called MYH9 D1424H wild-type; source: synthetic peptide, bought: Genecust
Kd [5]: 101 µM

B8: MYH9_(1419-1433) D1424H peptide (peptide)
peptide: YQQELDHLLVDLDHQR
notes: MYH9 residues 1419-1433; also called MYH9 D1424H mutant; source: synthetic peptide, bought: Genecust
Kd [5]: 306 µM

B9: MAPT 717-731 R723W peptide (peptide)
peptide: YSGDTSPWHLSNVSST
notes: microtubule-associated protein tau residues 717-731; also called MAPT R723W mutant; source: synthetic peptide, bought: Genecust
Kd [6]: 39 µM

B10: BCL11A_(44-56) wild-type peptide (peptide)
peptide: DLLTCGQAQMNFPY
notes: BCL11A residues 44-56; source: synthetic peptide, bought: Genecust
Kd [7]: 1100 µM

B11: BCL11A_(44-56) C48F peptide (peptide)
peptide: DLLTFGQAQMNFPY
notes: BCL11A residues 44-56; also called C47F BCL11A; source: synthetic peptide, bought: Genecust
Kd [7]: 361 µM
Kd [8]: 215 µM

B12: NSD1 1793-1808 L1797P peptide (peptide)
peptide: EFPVPFFGSNDYLWTH
notes: also called NSD1 L1797P mutant; source: synthetic peptide, bought: Genecust
Kd [1]: 49 µM

SVDLITFDSV (also: FITC label, position not given here) [FITC-NSP3]
Kd [9]: 21 µM

B13: FANCA 1-16 S4L peptide (peptide)
peptide: MSDLWVPNSASGQDPG
notes: FANCA residues 1-16; also called FANCA S4L mutant; source: synthetic peptide, bought: Genecust
Kd [6]: 15 µM

TDSPPPYSAG (also: FITC label, position not given here) [FITC-UL56(HHV-2)]
Kd [10]: 4.1 µM

B14: CDC45_(152-166) wild-type peptide (peptide)
peptide: EPSEKRTRLEEEIVEY
notes: also called CDC45 R157C wild-type; source: synthetic peptide, bought: Genecust
KD, major pocket [4]: 6.6 µM

B15: MITF 258-271 wild-type peptide (peptide)
peptide: SGNLIDLYGNQGLPY
notes: also called MITF Y265C wild-type; source: synthetic peptide, bought: Genecust
Kd [7]: 191 µM

B16: MITF 258-271 Y265C peptide (peptide)
peptide: SGNLIDLCGNQGLPY
notes: also called MITF Y265C mutant; source: synthetic peptide, bought: Genecust
Kd [7]: 206 µM

EQVEYGPLQAQM (also: FITC label, position not given here) [FITC-SPHK2]
Kd (PPIA): 42 µM

B17: Importin subunit alpha-8 (KPNA7) ARM domain (domain or fragment)
chain: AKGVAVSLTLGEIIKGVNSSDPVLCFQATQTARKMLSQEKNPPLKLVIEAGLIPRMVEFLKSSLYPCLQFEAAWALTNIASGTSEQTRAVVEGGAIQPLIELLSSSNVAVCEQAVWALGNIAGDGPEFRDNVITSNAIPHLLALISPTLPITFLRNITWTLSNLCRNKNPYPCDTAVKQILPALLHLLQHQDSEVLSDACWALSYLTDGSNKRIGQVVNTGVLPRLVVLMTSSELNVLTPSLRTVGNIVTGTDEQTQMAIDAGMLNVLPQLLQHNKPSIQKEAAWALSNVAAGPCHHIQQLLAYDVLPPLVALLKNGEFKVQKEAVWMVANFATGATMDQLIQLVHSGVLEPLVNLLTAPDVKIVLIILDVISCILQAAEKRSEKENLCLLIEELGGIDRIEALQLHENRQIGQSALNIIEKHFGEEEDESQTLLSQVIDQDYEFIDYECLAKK
Kd (FITC-MYC): 7.5 µM
Kd (FITC-NCOR2): 57 µM

APRITFGGPSDS (also: FITC label, position not given here) [FITC-N_SARS-CoV-2]
Kd [11]: 5.4 µM
Kd [12]: 2.51 µM
